Patent publication US20240376170A1 (BRIGHT PEAK THERAPEUTICS, published 2024)
Bridges are numbered along the chain shown (N, C = ends). Primed or numbered codes have the meaning given here. [ ]: non-standard residue; d: D form. Ygp(4) = Tyr with amino-capped PEG8 (O-(8x polyethylene glycol-amino)-tyrosine); Yn3(4) = Tyr with azide-capped PEG9 (O-(9x polyethylene glycol-azido)-tyrosine); Ygp = O-(8x polyethylene glycol-amino)-tyrosine (Tyr, amino-capped PEG8); Yn3 = O-(9x polyethylene glycol-azido)-tyrosine (Tyr, azide-capped PEG9); cleavable peptide‑PEG9‑glutaryl = not defined here; Ygp″ = O-(8x polyethylene glycol-amino)-tyrosine; Yn3″ = O-(9x polyethylene glycol-azido)-tyrosine; PEG4′ = 4x polyethylene glycol; PEG9′ = 9x polyethylene glycol; hSer = N[C@@H](CCO)C(=O)O; Nle = CCCC[C@H](N)C(=O)O

B1: CMP-151 (ligand)
chain: APTSSSTKKTQLQLEHLLLDLQKILNGINNYKNPKLTR[Nle]L[hSer][Yn3″]KF[Ygp″][Nle]PKKATELKHLQCLEEELKPLEEVL[hSer]LAQSKNFHLRPRDLISNINVIVLELKGSETTF[hSer]CEYADETATIVEFLNRWITFSQSIISTLT
modifications: linker N-23 via cleavable peptide‑PEG9‑glutaryl; reading uncertain
B2: CMP-138 (ligand)
chain: [PEG4′]SGGPGPAGMKGLPGS[PEG4′]APTSSSTKKTQLQLEHLLLDLQ[Nle]ILNGIENYKNPKLTR[Nle]L[hSer][Yn3]KF[Ygp][Nle]PKKATELKHLQCLEEELKPLEEVL[hSer]LAQSKNFHLRPRDLISNINVIVLELKGSETTF[hSer]CEYADETATIVEFLNRWITFSQSIISTLT
modifications: bridge (positions not given here); not fully specified (bridges); ends not checked
B3: CMP-136 (ligand)
chain: [PEG9′]PLGLAG[PEG9′]APTSSSTKKTQLQLEHLLLDLQ[Nle]ILNGIENYKNPKLTR[Nle]L[hSer][Yn3]KF[Ygp][Nle]PKKATELKHLQCLEEELKPLEEVL[hSer]LAQSKNFHLRPRDLISNINVIVLELKGSETTF[hSer]CEYADETATIVEFLNRWITFSQSIISTLT
modifications: bridge N-37; not fully specified (bridges); ends not checked
B4: CMP-165, MMP2 cleaved molecule (ligand)
chain: APTSSSTKKTQLQLEHLLLDLQKILNGINNYKNPKLTR[Nle]L[hSer][Yn3]KF[Ygp][Nle]PKKATELKHLQCLEEELKPLEEVL[hSer]LAQSKNFHLRPRDLISNINVIVLELKGSETTF[hSer]CEYADETATIVEFLNRWITFSQSIISTLT
modifications: ends and bridges not checked; also: MMP2 cleaved, cleavage site and linker fragments on N-terminus and Lys23 side chain not given here
B5: CMP-167, MMP2 cleaved molecule (ligand)
chain: APTSSSTKKTQLQLEHLLLDLQKILNGINNYKNPKLTR[Nle]L[hSer][Yn3]KF[Ygp][Nle]PKKATELKHLQCLEEELKPLEEVL[hSer]LAQSKNFHLRPRDLISNINVIVLELKGSETTF[hSer]CEYADETATIVEFLNRWITFSQSIISTLT
modifications: ends and bridges not checked; also: MMP2 cleaved, cleavage site and linker fragments on N-terminus and Lys23 side chain not given here
B6: CMP-301 (ligand)
chain: GPLGLAG[PEG9′]APTSSSTKKTQLQLEHLLLDLQEILNGINNYKNPKLTR[Nle]L[hSer][Yn3(4)]KF[Ygp(4)][Nle]PKKATELKHLQCLEEELKPLEEVL[hSer]LAQSKNFHLRPRDLISNINVIVLELKGSETTF[hSer]CEYADETATIVEFLNRWITFSQSIISTLT
modifications: lactam N-31; ends not checked
B7: CMP-166, MMP2 cleaved molecule (ligand)
chain: APTSSSTKKTQLQLEHLLLDLQKILNGINNYKNPKLTR[Nle]L[hSer][Yn3]KF[Ygp][Nle]PKKATELKHLQCLEEELKPLEEVL[hSer]LAQSKNFHLRPRDLISNINVIVLELKGSETTF[hSer]CEYADETATIVEFLNRWITFSQSIISTLT
modifications: ends and bridges not checked; also: MMP2 cleaved, cleavage site and linker fragments on N-terminus and Lys23 side chain not given here
B8: CMP-169, MMP2 cleaved molecule (ligand)
chain: APTSSSTKKTQLQLEHLLLDLQEILNGINNYKNPKLTR[Nle]L[hSer][Yn3(4)]KF[Ygp(4)][Nle]PKKATELKHLQCLEEELKPLEEVL[hSer]LAQSKNFHLRPRDLISNINVIVLELKGSETTF[hSer]CEYADETATIVEFLNRWITFSQSIISTLT
modifications: not fully specified; ends and bridges not checked; also: cleaved by MMP2, product not given here, Lys9 side chain linked to another sequence via PEG4, Glu23 side chain linked to another sequence
B9: CMP-169 (ligand)
chain: APTSSSTKKTQLQLEHLLLDLQEILNGINNYKNPKLTR[Nle]L[hSer][Yn3(4)]KF[Ygp(4)][Nle]PKKATELKHLQCLEEELKPLEEVL[hSer]LAQSKNFHLRPRDLISNINVIVLELKGSETTF[hSer]CEYADETATIVEFLNRWITFSQSIISTLT
modifications: bridge 9-23; not fully specified (bridges); ends not checked; also: linker peptide sequence not given here
B10: CMP-165 (ligand)
chain: APTSSSTKKTQLQLEHLLLDLQKILNGINNYKNPKLTR[Nle]L[hSer][Yn3]KF[Ygp][Nle]PKKATELKHLQCLEEELKPLEEVL[hSer]LAQSKNFHLRPRDLISNINVIVLELKGSETTF[hSer]CEYADETATIVEFLNRWITFSQSIISTLT
modifications: bridge N-23; not fully specified (bridges); ends not checked; also: sequence of the cleavable peptide in the bridge not given here
B11: CMP-163, MMP2 cleaved molecule (ligand)
chain: APTSSSTKKTQLQLEHLLLDLQKILNGINNYKNPKLTR[Nle]L[hSer][Yn3(4)]KF[Ygp(4)][Nle]PKKATELKHLQCLEEELKPLEEVL[hSer]LAQSKNFHLRPRDLISNINVIVLELKGSETTF[hSer]CEYADETATIVEFLNRWITFSQSIISTLT
modifications: not fully specified; ends and bridges not checked
B12: CMP-301, MMP2 cleaved molecule (ligand)
chain: APTSSSTKKTQLQLEHLLLDLQEILNGINNYKNPKLTR[Nle]L[hSer][Yn3(4)]KF[Ygp(4)][Nle]PKKATELKHLQCLEEELKPLEEVL[hSer]LAQSKNFHLRPRDLISNINVIVLELKGSETTF[hSer]CEYADETATIVEFLNRWITFSQSIISTLT
modifications: not fully specified; ends and bridges not checked; also: cleaved by MMP2, product not given here, N-terminus linked to another sequence via PEG9, Glu23 side chain linked to another sequence
B13: CMP-164, MMP2 cleaved molecule (ligand)
chain: APTSSSTKKTQLQLEHLLLDLQKILNGINNYKNPKLTR[Nle]L[hSer][Yn3]KF[Ygp][Nle]PKKATELKHLQCLEEELKPLEEVL[hSer]LAQSKNFHLRPRDLISNINVIVLELKGSETTF[hSer]CEYADETATIVEFLNRWITFSQSIISTLT
modifications: ends and bridges not checked; also: MMP2 cleaved, cleavage site and linker fragments on N-terminus and Lys23 side chain not given here
B14: CMP-164 (ligand)
chain: APTSSSTKKTQLQLEHLLLDLQKILNGINNYKNPKLTR[Nle]L[hSer][Yn3]KF[Ygp][Nle]PKKATELKHLQCLEEELKPLEEVL[hSer]LAQSKNFHLRPRDLISNINVIVLELKGSETTF[hSer]CEYADETATIVEFLNRWITFSQSIISTLT
modifications: bridge N-23; not fully specified (bridges); ends not checked; also: sequence of the cleavable peptide in the bridge not given here
B15: CMP-167 (ligand)
chain: APTSSSTKKTQLQLEHLLLDLQKILNGINNYKNPKLTR[Nle]L[hSer][Yn3]KF[Ygp][Nle]PKKATELKHLQCLEEELKPLEEVL[hSer]LAQSKNFHLRPRDLISNINVIVLELKGSETTF[hSer]CEYADETATIVEFLNRWITFSQSIISTLT
modifications: bridge N-23; not fully specified (bridges); ends not checked; also: sequence of the cleavable peptide in the bridge not given here

Biological target: T1, IL-2 receptor βγ complex (human, UniProt P14784 27-551; P31785 23-369)
T1 sequence (looked up) 1: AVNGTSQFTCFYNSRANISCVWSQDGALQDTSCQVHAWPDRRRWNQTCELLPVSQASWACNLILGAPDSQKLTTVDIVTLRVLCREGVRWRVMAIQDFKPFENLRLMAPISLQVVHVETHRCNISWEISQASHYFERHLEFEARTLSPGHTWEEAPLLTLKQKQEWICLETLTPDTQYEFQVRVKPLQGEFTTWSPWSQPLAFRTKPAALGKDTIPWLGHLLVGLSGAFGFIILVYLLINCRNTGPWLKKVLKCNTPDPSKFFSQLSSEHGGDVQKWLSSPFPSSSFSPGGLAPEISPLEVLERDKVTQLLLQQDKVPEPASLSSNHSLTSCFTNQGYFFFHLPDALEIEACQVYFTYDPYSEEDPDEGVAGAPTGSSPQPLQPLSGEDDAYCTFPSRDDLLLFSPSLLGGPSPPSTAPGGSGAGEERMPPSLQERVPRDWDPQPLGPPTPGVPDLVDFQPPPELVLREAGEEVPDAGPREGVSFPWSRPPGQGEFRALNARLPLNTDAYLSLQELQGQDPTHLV
T1 sequence (looked up) 2: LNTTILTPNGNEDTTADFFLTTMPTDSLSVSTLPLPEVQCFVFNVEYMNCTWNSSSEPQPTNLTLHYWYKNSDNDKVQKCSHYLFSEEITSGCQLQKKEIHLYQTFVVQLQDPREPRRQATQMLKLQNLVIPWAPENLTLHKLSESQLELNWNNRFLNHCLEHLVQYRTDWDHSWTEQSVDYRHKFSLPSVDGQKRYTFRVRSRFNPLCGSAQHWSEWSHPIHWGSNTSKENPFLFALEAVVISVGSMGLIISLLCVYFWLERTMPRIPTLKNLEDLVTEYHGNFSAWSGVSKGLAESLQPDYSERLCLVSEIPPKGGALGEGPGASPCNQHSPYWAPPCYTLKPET
Test: cell-based or functional assay

Binder | Average EC50, pSTAT5 Assay (T cells) [nM]
B1 | 28.2
B2 | 20.1
B3 | 40.5

Biological target: T1, IL-2 receptor βγ complex
Test: cell-based or functional assay
Remark: another data set of the same source

Binder | Average EC50, pSTAT5 Assay in NK cells [nM]
B1 | 2.51
B2 | 1.88
B3 | 2.17

Biological target: T1, IL-2 receptor βγ complex
Test: cell-based or functional assay
Remark: another data set of the same source

Binder | Average EC50, pSTAT5 Assay (T cells) [nM]
B4 | 1.42
B5 | 5.31
B6 | 180
B7 | 4.36
B8 | 5.39
B9 | 53.4
B10 | 57.4
B11 | 0.76
B12 | 0.883
B13 | 0.61
B14 | 31.4
B15 | 176
